Measured values published in patent US11278600B2, “Human alpha-galactosidase variants” (Codexis, Inc., priority 2014, dated 2022).

Assays:
Type in all cases: biochemical
[1] = HTP-analysis of yeast culture supernatants, no challenge (MUGal hydrolysis); conditions: activity of the variant/activity of Rd3BB (SEQ ID NO: 13)
Summary of the method: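 GLA variants expressed in yeast INVSc1, secreted into SD-Ura broth over 66-84 h at 30° C; clarified supernatants tested without challenge. Supernatant mixed with McIlvaine buffer pH 4.8 and 2 mM MUGal (citrate/KCl, pH 4.6), 37° C for 30-180 min, carbonate-quenched, fluorescence Ex 355/Em 448 nm.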

[2] = HTP-analysis of supernatants pretreated with acid (MUGal hydrolysis); conditions: activity of the variant/activity of Rd3BB (SEQ ID NO: 13); challenge at pH 3.7
Summary of the method: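 MUGal hydrolysis was tracked by fluorescence (Ex 355 nm, Em 448 nm) after a 30-180 min reaction at 37° C. in pH 4.8 McIlvaine/citrate buffer, stopped with 1 M sodium carbonate. Beforehand, yeast (INVSc1) culture supernatants carrying GLA variants were held 1-3 h at 37° C. in acidic McIlvaine buffer, pH 3.3-4.3.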

[3] = HTP-analysis of supernatants pretreated with base (MUGal hydrolysis); conditions: activity of the variant/activity of Rd3BB (SEQ ID NO: 13); challenge at pH 9.7
Summary of the method: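 GLA variants were secreted by transformed INVSc1 yeast grown 66-84 h at 30° C. Supernatants were exposed to neutral-to-basic buffers (pH 7.0-9.7) at 37° C for 1-18 h, then assayed with MUGal in acidic citrate/McIlvaine buffer, with fluorescence read after quenching.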

Molecule	Relative Activity of GLA Variants After No Challenge (NC) [1]	Relative Activity of GLA Variants After Challenge at pH 3.7 [2]	Relative Activity of GLA Variants After Challenge at pH 9.7 [3]
559 (protein, Synthetic Polypeptide sequence of Variant No. 559 of mature Human GLA) LDNGLARTPTMGWLHWERFMCNLDCQEEPDSCISEKLFMEMAERMVSEGWKDAGYEYLCIDDCWMAPQRDSEGRLQADPQRFPHGIRQLANHVHSKGLKLGIYADVGNKTCAGFPGSFGYYDIDAQTFADWGVDLLKFDGCYCDSLENLADGYKHMSLALNRTGRSIVYSCEWPLYMWPFQKPNYTEIRQYCNHWRNFADIDDSWASIKSILDWTSRNQERIVDVAGPGGWNDPDMLVIGNFGLSWDQQVTQMALWAIMAAPLFMSNDLRHISPQAKALLQDKDVIAINQDPLGKQGYQLRKGDNFEVWERPLSGDAWAVAIINRQEIGGPRSYTIPVASLGKGVACNPACFITQLLPVKRQLGFYNWTSRWKSHINPTGTVLLQLENTMQMSLKDLL	+ (+ = 1.5 to 5 relative activity over Rd3BB (SEQ ID NO: 13))	+ (+ = 1.5 to 5 relative activity over Rd3BB (SEQ ID NO: 13))	++ (++ = >5 to 10 relative activity over Rd3BB (SEQ ID NO: 13))
560 (protein, Synthetic Polypeptide sequence of Variant No. 560 of mature Human GLA) LDNGLARTPTMGWLHWERFMCNLDCQEEPDSCISEKLFMEMAERMVSEGWKDAGYEYLCIDDCWMAPQRDSEGRLQADPQRFPHGIRQLANHVHSKGLKLGIYADVGNKTCAGFPGSFGYYDIDAQTFADWGVDLLKFDGCYCDSLENLADGYKHMSLALNRTGRSIVYSCEWPLYMWPFQKPNYTEIRQYCNHWRNFADIDDSWASIKSILDWTSRNQERIVDVAGPGGWNDPDMLVIGNFGLSWDQQVTQMALWAIMAAPLFMSNDLRHISPQAKALLQDKDVIAINQDPLGKQGYQLRKGDNFEVWERPLSGDAWAVAIINRQEIGGPRSYTIPVASLGKGVACNPACFITQLLPVKRQLGFYNATSRLKSHINPTGTVLLQLENTMQMSLKDLL	+ (+ = 1.5 to 5 relative activity over Rd3BB (SEQ ID NO: 13))	++ (++ = >5 to 10 relative activity over Rd3BB (SEQ ID NO: 13))	++ (++ = >5 to 10 relative activity over Rd3BB (SEQ ID NO: 13))
561 (protein, Synthetic Polypeptide sequence of Variant No. 561 of mature Human GLA) LDNGLARTPTMGWLHWERFMCNLDCQEEPDSCISEKLFMEMAERMVSEGWKDAGYEYLCIDDCWMAPQRDSEGRLQADPQRFPHGIRQLANHVHSKGLKLGIYADVGNKTCAGFPGSFGYYDIDAQTFADWGVDLLKFDGCYCDSLENLADGYKHMSLALNRTGRSIVYSCEWPLYMWPFQKPNYTEIRQYCNHWRNFADIDDSWASIKSILDWTSRNQERIVDVAGPGGWNDPDMLVIGNFGLSWDQQVTQMALWAIMAAPLFMSNDLRHISPQAKALLQDKDVIAINQDPLGKQGYQLRKGDNFEVWERPLSGDAWAVAIINRQEIGGPRSYTIPVASLGKGVACNPACFITQLLPVKRQLGFYNLTSRLKSHINPTGTVLLQLENTMQMSLKDLL	+ (+ = 1.5 to 5 relative activity over Rd3BB (SEQ ID NO: 13))	+ (+ = 1.5 to 5 relative activity over Rd3BB (SEQ ID NO: 13))	++ (++ = >5 to 10 relative activity over Rd3BB (SEQ ID NO: 13))
562 (protein, Synthetic Polypeptide sequence of Variant No. 562 of mature Human GLA) LDNGLARTPTMGWLHWERFMCNLDCQEEPDSCISEKLFMEMAERMVSEGWKDAGYEYLCIDDCWMAPQRDSEGRLQADPQRFPHGIRQLANHVHSKGLKLGIYADVGNKTCAGFPGSFGYYDIDAQTFADWGVDLLKFDGCYCDSLENLADGYKHMSLALNRTGRSIVYSCEWPLYMWPFQKPNYTEIRQYCNHWRNFADIDDSWASIKSILDWTSRNQERIVDVAGPGGWNDPDMLVIGNFGLSWDQQVTQMALWAIMAAPLFMSNDLRHISPQAKALLQDKDVIAINQDPLGKQGYQLRKGDNFEVWERPLSGDAWAVAIINRQEIGGPRSYTIPVASLGKGVACNPACFITQLLPVKRQLGFYNNTSRLKSHINPTGTVLLQLENTMQMSLKDLL	+ (+ = 1.5 to 5 relative activity over Rd3BB (SEQ ID NO: 13))	+ (+ = 1.5 to 5 relative activity over Rd3BB (SEQ ID NO: 13))	++ (++ = >5 to 10 relative activity over Rd3BB (SEQ ID NO: 13))
563 (protein, Synthetic Polypeptide sequence of Variant No. 563 of mature Human GLA) LDNGLARTPTMGWLHWERFMCNLDCQEEPDSCISEKLFMEMAERMVSEGWKDAGYEYLCIDDCWMAPQRDSEGRLQADPQRFPHGIRQLANHVHSKGLKLGIYADVGNKTCAGFPGSFGYYDIDAQTFADWGVDLLKFDGCYCDSLENLADGYKHMSLALNRTGRSIVYSCEWPLYMWPFQKPNYTEIRQYCNHWRNFADIDDSWASIKSILDWTSRNQERIVDVAGPGGWNDPDMLVIGNFGLSWDQQVTQMALWAIMAAPLFMSNDLRHISPQAKALLQDKDVIAINQDPLGKQGYQLRKGDNFEVWERPLSGDAWAVAIINRQEIGGPRSYTIPVASLGKGVACNPACFITQLLPVKRQLGFYNRTSRLKSHINPTGTVLLQLENTMQMSLKDLL	+ (+ = 1.5 to 5 relative activity over Rd3BB (SEQ ID NO: 13))	+ (+ = 1.5 to 5 relative activity over Rd3BB (SEQ ID NO: 13))	++ (++ = >5 to 10 relative activity over Rd3BB (SEQ ID NO: 13))
564 (protein, Synthetic Polypeptide sequence of Variant No. 564 of mature Human GLA) LDNGLARTPTMGWLHWERFMCNLDCQEEPDSCISEKLFMEMAERMVSEGWKDAGYEYLCIDDCWMAPQRDSEGRLQADPQRFPHGIRQLANHVHSKGLKLGIYADVGNKTCAGFPGSFGYYDIDAQTFADWGVDLLKFDGCYCDSLENLADGYKHMSLALNRTGRSIVYSCEWPLYMWPFQKPNYTEIRQYCNHWRNFADIDDSWASIKSILDWTSRNQERIVDVAGPGGWNDPDMLVIGNFGLSWDQQVTQMALWAIMAAPLFMSNDLRHISPQAKALLQDKDVIAINQDPLGKQGYQLRKGDNFEVWERPLSGDAWAVAIINRQEIGGPRSYTIPVASLGKGVACNPACFITQLLPVKRQLGFYNVTSRLKSHINPTGTVLLQLENTMQMSLKDLL	+ (+ = 1.5 to 5 relative activity over Rd3BB (SEQ ID NO: 13))	+ (+ = 1.5 to 5 relative activity over Rd3BB (SEQ ID NO: 13))	++ (++ = >5 to 10 relative activity over Rd3BB (SEQ ID NO: 13))
